Measured values from patent publication US20250002610A1 (Genmab, published 2025).

Target: T1, human DR4 (Death Receptor 4), cell surface expressed on human tumor cell lines (human, UniProt O00220 24-468)
T1 construct: also called TNFRSF10A; TRAIL-R1
T1 sequence: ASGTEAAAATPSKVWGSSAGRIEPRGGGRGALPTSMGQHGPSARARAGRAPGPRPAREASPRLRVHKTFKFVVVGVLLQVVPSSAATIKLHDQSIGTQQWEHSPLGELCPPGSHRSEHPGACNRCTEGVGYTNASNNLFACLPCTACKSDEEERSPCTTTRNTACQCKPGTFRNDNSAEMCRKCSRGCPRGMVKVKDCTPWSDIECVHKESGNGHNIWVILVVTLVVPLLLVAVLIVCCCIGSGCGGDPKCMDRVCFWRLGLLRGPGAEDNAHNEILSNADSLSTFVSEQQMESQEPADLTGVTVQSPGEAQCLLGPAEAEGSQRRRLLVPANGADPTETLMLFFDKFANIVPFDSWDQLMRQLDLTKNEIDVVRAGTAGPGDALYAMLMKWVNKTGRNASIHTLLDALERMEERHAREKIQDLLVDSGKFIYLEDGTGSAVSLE
Test: flow cytometry, MDA-MB-231 cells, n = 3

B1: BisG1-b12-FERL/DR4-FERR (bispecific antibody, human IgG1, kappa, lambda)
heavy 1: QVQLVQSGAEVKKPGASVKVSCQASGYRFSNFVIHWVRQAPGQRFEWMGWINPYNGNKEFSAKFQDRVTFTADTSANTAYMELRSLRSADTAVYYCARVGPYSWDDSPQDNYYMDVWGKGTTVIVSSASTKGPSVFPLAPSSKSTSGGTAALGCLVKDYFPEPVTVSWNSGALTSGVHTFPAVLQSSGLYSLSSVVTVPSSSLGTQTYICNVNHKPSNTKVDKRVEPKSCDKTHTCPPCPAPEFERGPSVFLFPPKPKDTLMISRTPEVTCVVVDVSHEDPEVKFNWYVDGVEVHNAKTKPREEQYNSTYRVVSVLTVLHQDWLNGKEYKCKVSNKALPAPIEKTISKAKGQPREPQVYTLPPSREEMTKNQVSLTCLVKGFYPSDIAVEWESNGQPENNYKTTPPVLDSDGSFLLYSKLTVDKSRWQQGNVFSCSVMHEALHNHYTQKSLSLSPG
light 1: EIVLTQSPGTLSLSPGERATFSCRSSHSIRSRRVAWYQHKPGQAPRLVIHGVSNRASGISDRFSGSGSGTDFTLTITRVEPEDFALYYCQVYGASSYTFGQGTKLERKRTVAAPSVFIFPPSDEQLKSGTASVVCLLNNFYPREAKVQWKVDNALQSGNSQESVTEQDSKDSTYSLSSTLTLSKADYEKHKVYACEVTHQGLSSPVTKSFNRGEC
heavy 2: QVQLQESGPGLVKPSGTLSLTCAVSGGSISSYSWWSWIRQPPGKGLEWIGELYHSGSTNYNPSLKSRVTISVDKSKNQFSLKLRSVTAADTAVYYCVRGVATIDYWGQGTLVTVSSASTKGPSVFPLAPSSKSTSGGTAALGCLVKDYFPEPVTVSWNSGALTSGVHTFPAVLQSSGLYSLSSVVTVPSSSLGTQTYICNVNHKPSNTKVDKRVEPKSCDKTHTCPPCPAPEFERGPSVFLFPPKPKDTLMISRTPEVTCVVVDVSHEDPEVKFNWYVDGVEVHNAKTKPREEQYNSTYRVVSVLTVLHQDWLNGKEYKCKVSNKALPAPIEKTISKAKGQPREPQVYTLPPSREEMTKNQVSLTCLVKGFYPSDIAVEWESNGQPENNYKTTPPVLDSDGSFFLYSRLTVDKSRWQQGNVFSCSVMHEALHNHYTQKSLSLSPG
light 2: QSALTQPPSASGSPGQSVTISCTGTSSDVGGYNFVSWYQQDPGKAPKLLIYEVTKRPSGVPDRFSGSKSGNTASLTVSGLQAEDEADYYCSSYAGSNNVMFGGGTKLTVLGQPKAAPSVTLFPPSSEELQANKATLVCLISDFYPGAVTVAWKADSSPVKAGVETTTPSKQSNNKYAASSYLSLTPEQWKSHRSYSCQVTHEGSTVEKTVAPTECS
notes: Fab-arm exchange of IgG1-b12-FERL and IgG1-DR4-FERR; also called bsIgG1-ctrl-FERLxDR4-FERR
EC50: 0.92 µg/mL
